Assay results: patent publication US20170240596A1 (CURATORS OF THE UNIVERSITY OF MISSOURI, published 2017)
Values belong to the binder of their own block, whether it stands above or below them. No end group written: not given here.

Experiments:
[1] = biological target: T1, Prostate-specific membrane antigen (PSMA) (human, UniProt Q04609 1-750); experiment: apparent Kd, flow cytometry, FAM-labeled peptide on PSMA-positive LNCaP cells, 4 C, one-site fit
T1 construct: whole, on cells; Never tested as an isolated protein against single peptides; also called NAAG peptidase; glutamate carboxypeptidase II (GCPII)
Excerpt: Flow cytometry analysis. Cells were detached using non-enzymatic cell dissociation solution and suspended in PBS (pH=7.4) at a concentration of 1×10⁶ cells/mL. […] The cells were then washed with PBS for three times and subjected to fluorescence analysis on a FACSCalibur flow cytometer (BD Biosciences, Franklin Lakes, N.J.).
Apparent equilibrium dissociation constant (Kd) of the peptides. […] Flow cytometry was employed to determine the percentage of cells that were labeled with the peptides. The apparent Kd values were calculated by fitting to a one-site specific binding model using GraphPad Prism 5.

[2] = biological target: T1, Prostate-specific membrane antigen …; experiment: competitive inhibition on LNCaP cells, peptide pre-incubation at 100 uM then phage, phage titering
Description: Competitive inhibition assay. Competitive binding inhibition between selected phages and their encoded peptides was examined in this study. […] The bound phages were recovered and titered as described above.
It was first evaluated whether these phages bind to LNCaP cells via specific interaction with their encoding peptides. LNCaP cells were pre-incubated with the encoding peptides, followed by washing and incubation with the corresponding phages. The bound phages were then eluted and titered.

[3] = biological target: T1, Prostate-specific membrane antigen …; experiment: apparent Kd by flow cytometry on C4-2 cells; weaker than GTI

T1 sequence (Q04609 whole entry): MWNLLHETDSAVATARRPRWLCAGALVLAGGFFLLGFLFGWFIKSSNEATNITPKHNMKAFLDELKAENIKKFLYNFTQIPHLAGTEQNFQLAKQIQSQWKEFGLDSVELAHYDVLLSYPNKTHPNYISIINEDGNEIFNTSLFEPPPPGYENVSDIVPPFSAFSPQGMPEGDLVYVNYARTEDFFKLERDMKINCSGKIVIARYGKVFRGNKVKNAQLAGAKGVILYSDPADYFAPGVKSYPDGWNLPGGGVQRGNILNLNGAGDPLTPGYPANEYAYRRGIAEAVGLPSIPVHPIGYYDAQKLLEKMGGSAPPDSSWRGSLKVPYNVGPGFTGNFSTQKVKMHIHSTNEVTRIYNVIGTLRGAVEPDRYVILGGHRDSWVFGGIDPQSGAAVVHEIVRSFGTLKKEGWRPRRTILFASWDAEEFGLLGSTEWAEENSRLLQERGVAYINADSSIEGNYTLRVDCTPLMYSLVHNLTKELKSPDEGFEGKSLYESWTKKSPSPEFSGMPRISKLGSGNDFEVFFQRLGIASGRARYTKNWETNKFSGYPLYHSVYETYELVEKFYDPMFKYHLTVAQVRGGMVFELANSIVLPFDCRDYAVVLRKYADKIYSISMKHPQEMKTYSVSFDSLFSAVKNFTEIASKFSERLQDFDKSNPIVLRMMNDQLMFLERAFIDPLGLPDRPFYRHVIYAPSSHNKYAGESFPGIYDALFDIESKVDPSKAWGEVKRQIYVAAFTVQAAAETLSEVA

Kd [1]: 8.01 µM
Binder: TGHLYPTRMEIQ (also: FAM label, position not given here) [FAM-labeled TGH peptide TGHLYPTRMEIQ]

binding result [2]: binds
Binder: YVNSHSILGYTG [YVN synthetic peptide YVNSHSILGYTG]

binding result [3]: binds
B1: FAM-labeled scrambled GTI peptide SGYQTFYWPGPI (peptide)
peptide: SGYQTFYWPGPI
modifications: also: FAM label, position not given here
notes: Random permutation of the GTI peptide; also called scrambled peptide; scrambled control

binding result [2]: binds
Binder: TGHLYPTRMEIQ [TGH synthetic peptide TGHLYPTRMEIQ]

Kd [1]: 12.8 µM
Binder: HSDNHYRPADKL (also: FAM label, position not given here) [FAM-labeled HSD peptide HSDNHYRPADKL]

Kd [1]: 9.34 µM
Binder: YVNSHSILGYTG (also: FAM label, position not given here) [FAM-labeled YVN peptide YVNSHSILGYTG]
